Tests used:
[1] = biological target: CTLA-4-Ig(G1) (Repligen, Inc.) (UniProt P16410); assay: IGEN ECL bead assay, CTLA-4-Ig(G1) against B7.2-Ig(G1), antibody 1 ug/ml
[2] = biological target: CTLA-4-Ig(G1) (Repligen, Inc.) (UniProt P16410); assay: IGEN ECL bead assay, CTLA-4-Ig(G1) against CD28-Ig(G1), antibody 1 ug/ml

B1: 4.10.2 (antibody, human IgG2, V domains shown)
VH: QVQLVESGGGVVQPGRSLRLSCVASGFIFSSHGIHWVRQAPGKGLEWVAVIWYDGRNKDYADSVKGRFTISRDNSKNTLYLQMNSLRAEDTAVYYCARVAPLGPLDYWGQGTLVTVSS
VL: EFVLTQSPGTLSLSPGERATLSCRASQSISSNFLAWYQQKPGQAPRLLIYRPSSRATGIPDSFSGSGSGTDFTLTISRLEPEDFALYYCQQYGTSPFTFGPGTKVDIK
modifications: chain 1 pos 1: pyroglutamate from Gln (FIG. 9: NH2-Blocked, pQ), written Q
- selectivity ratio CTLA4/B7.2 [1]: > 500 :1
- selectivity ratio CTLA4/CD28 [2]: > 500 :1

— patent US20050287136A1
